Where a name gives a salt, the structure may show the parent alone. Read-outs that look alike come from different tables or passages of the source. Blank lines part the entries; values can stand above or below the compound they belong to. Square brackets hold non-standard residues; d marks the D form. Peptide text beside a SMILES is read from it. Arg(Me) = CNC(=N)NCCC[C@H](N)C(=O)O; azaGly = NNC(=O)O
Columns and labels:
in vivo = assay: in vivo
Procedure: The pharmacokinetics of conjugate C8 were determined after administration of 40 nmol/kg IV in male and of 200 nmol/kg SC in female Sprague-Dawley rats.

[1] = In vitro stability in human serum (LC/MS/MS); conditions: for half-life at 750 nM: human
Procedure: Test compound is added to 1.5 mL human serum in a 96-wells deepwell plate in a final concentration of 750 nM. The compound is mixed and immediately thereafter a 100 μl sample is harvested in a 96-wells 2D-tuberack (T=0 sample). The 2 D-tubes are closed with rubber tube caps and the sample plate is stored at −20° CF. in the freezer. The deepwell plate is put into an incubator which was set at humidified (95%) atmosphere at 5-7% CO2 and 37° C. for an incubation period of maximum 240 h. During this incubation period, samples of 100 μl are collected on various time intervals, dependent on the test compound used; time points 0, 1, 2, 3, 6, 24, 48, 72 h in case of Kisspeptides and 0, 3, 6, 24, 48, 72, 168, 240 h in case of kisspeptide-pentasaccharide conjugates. Sample plates are put on ice in case of sampling and stored at −20° C. until analysis by LC/MS/MS.
For LC-MS/MS analysis, the compounds are separated over an XTerra RP8 column and using a gradient mobile phase of ammonium acetate buffer and acetonitrile at a fixed column temperature. MS/MS detection is done with a triple quadrupole mass spectrometer and employing negative ion electrospray ionization. The mass spectrometer is set up to achieve a known degree of in source fragmentation, where the initially formed multiply charged negative ions lose one or more SO3 molecules. The most abundant of these secondary ions are then subjected to a common MS/MS experiment in which a single SO3 loss is monitored. The Q1 and Q3 mass filter settings for this MS/MS experiment have commonly been determined in method development. […] Internal standardization is accomplished by adding a different conjugate of approximately the same size to the bioanalytical samples.
The rate of compound loss is expressed as a half-life (plasma t^1/2). The t^1/2 for the test compound can be determined by plotting the natural logarithm (In) of the measured concentrations against time and fitting the line through all data points. The gradient of this line is the first order rate constant (k) for substrate disappearance and is determined by regression analysis. The rate constant is converted to a half-life according to the following equation: In vitro half-life(t^1/2)=−ln 2/k

human KISS-receptor = molecular target: T1, human KISS-receptor (Homo sapiens, UniProt Q969F8); assay: NFAT-regulated luciferase reporter gene assay in CHO-k1 cells, agonist activity; format: cell-based
T1 construct: expressed in transfected cells; host or cells: CHO-k1 cells that also express mitochondrially targeted aequorin, Gα16 and an NFAT-luciferase reporter
T1 sequence (Q969F8 whole entry): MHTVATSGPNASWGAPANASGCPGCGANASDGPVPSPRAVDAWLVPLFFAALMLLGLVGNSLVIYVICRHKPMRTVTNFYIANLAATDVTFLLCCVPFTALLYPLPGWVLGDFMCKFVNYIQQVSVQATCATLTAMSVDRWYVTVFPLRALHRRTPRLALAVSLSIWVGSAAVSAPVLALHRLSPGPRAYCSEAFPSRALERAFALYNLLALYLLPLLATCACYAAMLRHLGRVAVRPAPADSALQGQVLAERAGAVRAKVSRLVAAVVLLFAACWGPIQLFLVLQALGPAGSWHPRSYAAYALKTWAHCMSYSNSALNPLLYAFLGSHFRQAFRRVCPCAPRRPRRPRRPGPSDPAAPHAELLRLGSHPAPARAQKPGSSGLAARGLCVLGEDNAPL
Procedure: CHO-k1 cells were used that expressed the mitochondrially targeted aequorine and Gα16 (from Euroscreen, Brussels, Belgium), a Nuclear Factor of Activated T-cells-responsive element (NFAT) under the control of a promoter directing the expression of a firefly luciferase reporter gene (pNFAT-TALuc obtained from Clontech, Mountain View, Calif.), and the human GPR54-R Hygro(+)-hGPR54WT c4; MSD). These cells were cultured in Dulbecco's Modified Eagle Medium: Nutrient Mixture F-12 (DMEM/F12) (Invitrogen, Carlsbad, Calif.), supplemented with 10% (vol/vol) filtered bovine serum (Hyclone, Thermo Fisher Scientific, Waltham, Mass.), 100 U/ml penicillin G, 100 μg/ml streptomycin, 400 μg/ml Geneticin and 400 μg/ml Hygromycin (Invitrogen). […] Kisspeptin-10 was used as a standard. […] When the conjugates were tested in the presence of a final percentage of 20% human serum, 10 μl assay medium containing 60% human serum (Sigma-Aldrich, #H4522) was added to the wells. In the absence of human serum, 10 μl of assay medium was added. Cells were harvested and diluted to a concentration of 7.5E5 cells/ml in assay medium without 0.1% BSA. 10 μl of cell solution was added to the compound wells. After incubation for 4 hours in a humidified atmosphere at 5% CO2 and 37° C., the plate was left at room temperature for 30 minutes. Subsequently, 15 μl of Steadylite™ solution (PerkinElmer, Boston, Mass.) was added and the cells, protected from light, were allowed to lyse for 30 min at room temperature. Luminescence, indicated as relative luminescence units (RLU), was measured on an Envision Multilabel reader (PerkinElmer).

[2] = cited from earlier work
[3] = after clomiphene citrate treatment; cited from earlier work
[4] = female, Sprague-Dawley, rat, plasma, sc, 0.2 umol/kg
[5] = female, Sprague-Dawley, rat, plasma, sc, 200 nmol/kg
[6] = female, Sprague-Dawley, rat, plasma, sc, 0.6 umol/kg
[7] = male, Sprague-Dawley, rat, plasma, iv, 40 nmol/kg
[8] = absence of human serum, read-out: pEC50 (converted)
[9] = presence of 20% human serum, read-out: pEC50 serum (converted)

Structure (SMILES): CNC(=N)NCCC[C@H](NC(=O)[C@H](CC(C)C)NC(=O)NNC(=O)[C@H](Cc1ccccc1)NC(=O)[C@@H](NC(=O)[C@H](CC(N)=O)NC(=O)[C@H](Cc1c[nH]c2ccccc12)NC(=O)[C@H](CC(N)=O)NC(=O)[C@@H](Cc1ccc(O)cc1)NC(=O)CCCCn1cc(CCC(=O)NCCOCCOCCOCCO[C@H]2[C@H](OC)[C@@H](OC)[C@@H](O[C@H]3[C@H](OC)[C@@H](OC)[C@H](O[C@H]4[C@H](OS(=O)(=O)O)[C@@H](OS(=O)(=O)O)[C@@H](O[C@H]5[C@H](OC)[C@@H](OC)[C@H](O[C@H]6[C@H](OS(=O)(=O)O)[C@@H](OS(=O)(=O)O)[C@@H](OC)O[C@@H]6COS(=O)(=O)O)O[C@H]5C(=O)O)O[C@@H]4COS(=O)(=O)O)O[C@@H]3C(=O)O)O[C@@H]2COS(=O)(=O)O)nn1)C(C)O)C(=O)N[C@@H](Cc1ccccc1)C(N)=O (stereo partly shown) [Conjugate C8]
AUCN(0-∞) IV (in vivo; 40 nmol/kg IV, male rats): 60.4 nM·kg·h/µg
AUCN(0-∞) SC (in vivo; 200 nmol/kg SC, female rats): 56.5 nM·kg·h/µg
F (in vivo; 200 nmol/kg SC, female rats): 94%
AUC(0-inf) (in vivo; [4]): 38.7 µM·h
Cmax (in vivo; [4]): 2310 nM
level at time molar at 24 h (in vivo; [4]): 490 nM
Tmax (in vivo; female, Sprague-Dawley, rat, plasma, sc, 0.2 umol/kg, Tmax, SC 0.2 μmol/kg, female rats): 2.7 h
Cmax (in vivo; [5]): 2310 nM
bioavailability (in vivo; [5]): 93.5%
Tmax (in vivo; female, Sprague-Dawley, rat, plasma, sc, 200 nmol/kg, Tmax, 200 nmol/kg SC, female rats): 2.7 h
Tmax (in vivo; female, Sprague-Dawley, rat, plasma, sc, 200 nmol/kg, tmax, following subcutaneous administration): 2.7 to 3.3 h
AUC(0-inf) (in vivo; [6]): 90.5 µM·h
Cmax (in vivo; [6]): 5180 nM
level at time molar at 24 h (in vivo; [6]): 1100 nM
Tmax (in vivo; female, Sprague-Dawley, rat, plasma, sc, 0.6 umol/kg, Tmax, SC 0.6 μmol/kg, female rats): 1.7 h
Vd (in vivo; [7]): 0.067 L/kg
clearance (in vivo; [7]): 4.8 mL/h/kg
half-life (in vivo; [7]): 11.5 h
half-life at 750 nM [1]: > 240 h
EC50 (human KISS-receptor; pEC50, absence of human serum): 0.158 nM
EC50 (human KISS-receptor; pEC50 serum, presence of 20% human serum): 7.24 nM

half-life at 750 nM [1]: 5.4 h
stability (in words) [1]: not sufficiently stable
EC50 (human KISS-receptor; [8]): 0.1 nM
EC50 (human KISS-receptor; [9]): 0.0501 nM
Structure (SMILES): CNC(=N)NCCC[C@H](NC(=O)[C@H](CC(C)C)NC(=O)NNC(=O)[C@H](Cc1ccccc1)NC(=O)[C@@H](NC(=O)[C@H](CC(N)=O)NC(=O)[C@H](Cc1c[nH]c2ccccc12)NC(=O)[C@H](CC(N)=O)NC(=O)[C@H](N)Cc1ccc(O)cc1)[C@@H](C)O)C(=O)N[C@@H](Cc1ccccc1)C(N)=O [Conjugate P29, reference compound] (H-[dY]NWNTF[azaGly]L[Arg(Me)]F-NH2)

stability (in words) [1]: not sufficiently stable
EC50 (human KISS-receptor; [8]): 1 nM
EC50 (human KISS-receptor; [9]): 1 nM
Structure (SMILES): CC(C)C[C@H](NC(=O)CNC(=O)[C@H](Cc1ccccc1)NC(=O)[C@H](CO)NC(=O)[C@H](CC(N)=O)NC(=O)[C@H](Cc1c[nH]c2ccccc12)NC(=O)[C@H](CC(N)=O)NC(=O)[C@@H](N)Cc1ccc(O)cc1)C(=O)N[C@@H](CCCNC(=N)N)C(=O)N[C@@H](Cc1ccccc1)C(N)=O [Kiss-10, reference compound]
half-life in human plasma [2]: ~0.167 h

Structure (SMILES): CCN(CC)CCOc1ccc(C(=C(Cl)c2ccccc2)c2ccccc2)cc1 [clomiphene citrate]
ovulation rates [3]: 60%-90%
pregnancy rates [3]: 20%-40%

Source: US9127038B2, “Kisspeptide-pentasaccharide conjugates” (Merck Sharp & Dohme Corp., priority 2011, dated 2015)
